Values quoted from earlier work in publication PMC5883021.

Target: F-actin (Oryctolagus cuniculus) (UniProt P68135)

- Kd: 7.39 µM
Substance: TAGLN2 (from UniProt P37802)
